From doi:10.1101/2024.11.26.625467

Target: CA09 N1 sNAp (stabilized NA protein, neuraminidase head of H1N1 A/California/07/2009) (influenza A virus H1N1 A/California/07/2009)
Assay: cryo-EM structure

For “CA09 N1 sNAp (stabilized NA protein, neuraminidase head of H1N1 A/California/07/2009) (domain or fragment)”, which stoichiometry N is on record?
The stoichiometry N was 4.
